Source: patent publication US8895281B2, “Method for preparing a site-specific physiologically active polypeptide conjugate” (Hanmi Science Co., Ltd, priority 2009, dated 2014)

What was measured:
[1] = biological target: GLP-1 receptor (CHO/GLP-1R cell line); assay: cell-based or functional assay
GLP-1 receptors = biological target: T1, GLP-1 receptors (Homo sapiens, UniProt P43220); assay: In-vitro activity: cAMP increase in CHO/GLP-1R cells; assay type: cell-based; settings: CHO/GLP-1R cell line; cAMP measured at varying concentrations, EC50 values compared; control Byetta = 100
T1 construct: expressed in transfected cells; host or cells: CHO (CHO/GLP-1R)
T1 sequence (P43220 24-463): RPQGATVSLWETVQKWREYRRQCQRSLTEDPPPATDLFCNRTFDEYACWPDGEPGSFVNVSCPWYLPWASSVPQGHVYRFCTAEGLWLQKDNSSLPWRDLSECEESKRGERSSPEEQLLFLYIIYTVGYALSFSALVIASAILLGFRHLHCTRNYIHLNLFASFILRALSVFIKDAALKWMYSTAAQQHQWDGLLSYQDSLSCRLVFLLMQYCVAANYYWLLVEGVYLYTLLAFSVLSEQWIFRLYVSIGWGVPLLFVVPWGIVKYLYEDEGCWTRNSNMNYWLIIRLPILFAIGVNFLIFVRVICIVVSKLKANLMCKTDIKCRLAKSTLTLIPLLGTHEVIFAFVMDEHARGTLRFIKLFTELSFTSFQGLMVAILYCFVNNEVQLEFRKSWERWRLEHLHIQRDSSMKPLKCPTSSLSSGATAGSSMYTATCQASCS
Procedure: To measure the efficacy of long acting preparation of exendin-4 by pegylation and pegylation site, a method for measuring the in-vitro activity was used. The measurement of in-vitro activity of GLP-1 is a method for measuring whether cAMP's in the cell was increased after treatment of GLP-1 to CHO cell lines to which GLP-1 receptors was cloned. Specifically, CHO/GLP-1R, a cell line in which […], was treated with GLP-1, exendin-4 and test materials described in Table 1 at varying concentrations.

Sequence of Byetta (Eli Lilly) (P26349 48-86): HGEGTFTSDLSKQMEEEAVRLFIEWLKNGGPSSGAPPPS

| In-vitro activity (%) (GLP-1 receptors) | Substance | In-vitro activity (%) (cAMP in CHO/GLP-1R cells, EC50 values compared) [1] |
| --- | --- | --- |
| – | Byetta (Eli Lilly) (from UniProt P26349 48-86) (peptide) | 100% |
| 77% | imidazo-acetyl-exendin-4 [CA-exendin-4] | – |
